{"source": "patent US9926375B2", "about": "“Anti-endoglin antibodies and uses thereof” (Tracon Pharmaceuticals, Inc., priority 2014, dated 2018)", "key": {"NASH mice": {"test_system": "NASH mice", "experiment": "Murine model of non-alcoholic steatohepatitis (NASH; STZ and high fat diet)", "assay_type": "in vivo, mouse", "outline": "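NASH induced in mice by single postnatal subcutaneous STZ plus high-fat diet from 4 weeks of age; groups of 10 dosed from day 63 with antibodies i.v. at 10 mg/kg twice weekly or telmisartan orally 10 mg/kg daily to day 84. At 12 weeks, H&E liver sections scored for NAFLD Activity Score (0–8); Bonferroni test, P<0.05.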"}, "mouse endoglin": {"target": "T1, mouse endoglin (Mus musculus, UniProt Q63961)", "T1 construct": "purchased R&D Systems 1320-EN-025", "T1 sequence (Q63961 27-581 limits assumed)": "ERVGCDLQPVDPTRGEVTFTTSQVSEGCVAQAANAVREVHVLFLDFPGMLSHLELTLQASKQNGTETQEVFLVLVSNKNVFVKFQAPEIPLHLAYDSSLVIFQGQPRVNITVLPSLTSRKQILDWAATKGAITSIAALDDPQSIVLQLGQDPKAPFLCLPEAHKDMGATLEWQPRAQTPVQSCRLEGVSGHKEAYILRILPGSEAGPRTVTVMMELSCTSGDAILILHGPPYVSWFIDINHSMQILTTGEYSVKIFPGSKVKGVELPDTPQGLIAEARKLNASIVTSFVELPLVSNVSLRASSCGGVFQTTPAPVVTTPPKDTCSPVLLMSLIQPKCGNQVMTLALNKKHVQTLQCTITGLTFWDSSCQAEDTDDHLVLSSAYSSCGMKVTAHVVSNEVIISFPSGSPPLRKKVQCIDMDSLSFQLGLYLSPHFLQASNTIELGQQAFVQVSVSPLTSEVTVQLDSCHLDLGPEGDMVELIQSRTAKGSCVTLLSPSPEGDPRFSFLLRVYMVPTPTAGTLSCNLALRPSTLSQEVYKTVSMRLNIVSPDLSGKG", "experiment": "ELISA binding of M1043 antibody to mouse endoglin", "conditions": "10 μg/ml to 0.014 μg/ml; plate coated with mouse endoglin 1 μg/ml", "protocol": "An ELISA was established to determine the binding of M1043 antibody to mouse endoglin as follows: Nunc Immuno MaxiSorp 96 well flat bottom plates (Fisher, Cat. No. DIS-971-030J) were coated with mouse endoglin (R&D Systems, Cat. No. 1320-EN-025) at 1 μg/ml in PBS overnight at 4° C. The following day the plate was washed three times with PBST before blocking with PBST/3% Marvel at room temperature for 1 hour. After blocking, the plate was washed three times with PBST, and varying concentrations (10 μg/ml to 0.014 μg/ml in three-fold serial dilutions) of either M1043 or an irrelevant rat IgG1 (Affymetrix, Cat. No. 14-4301) in PBST/3% Marvel were added to the plate and incubated for 1 hour at room temperature. Binding of the antibodies was detected via anti-rat IgG peroxidase (Sigma, Cat. No. A9037) and TMB single solution substrate (Invitrogen, Cat. No. 00-2023). The reaction was stopped by adding 3 M HCl and OD450 nm values were measured on a Dynex MRX TCII plate reader."}, "[1]": {"conditions": "liver gene expression, mean ± SD, Normal-Vehicle 1.0"}}, "note": "“Also recorded” adds a separate entry of the source."}
{"molecule": "M1043: rat IgG1 antibody that binds mouse endoglin and competitively inhibits mouse BMP binding; VH SEQ ID NO: 124, VL SEQ ID NO: 125 (antibody, V domains shown) VH: QVQLQQSGAELVKPGSSVKISCKASGYTFTSYDMHWIKQQPGNGLEWIGWIYPGNGNTKYNQKFNGKATLTADKSSSTAYMQLSSLTSEDSAVYFCARGKFGVGDYWGQGVMVTVSS VL: DTVLTQSPALAVSPGERVSISCRASEGVNSYMHWYQQKPGQQPKLLIYIASNLASGVPARFSGSGSGTDFTLTIDPVEADDTATYFCQQSWNDPYTFGAGTKLELKR", "values": [{"measurement": "Liver triglyceride contents compared with the NASH-Vehicle group", "setting": "NASH mice; Bonferroni, P<0.05", "result": "significant decreases"}, {"measurement": "Mean liver weight compared with the NASH-Vehicle group", "setting": "NASH mice; Bonferroni, P<0.05", "result": "tended to decrease"}, {"measurement": "Mean liver-to-body weight ratio compared with the NASH-Vehicle group", "setting": "NASH mice; Bonferroni, P<0.05", "result": "significant decreases"}, {"measurement": "NAS compared with the NASH-Vehicle group", "setting": "NASH mice; Bonferroni, P<0.05", "result": "significant decreases in NAS; also recorded: significant reductions of NAS"}, {"measurement": "Serum alanine aminotransferase (ALT) levels compared with the NASH-Vehicle group", "setting": "NASH mice; Bonferroni, P<0.05", "result": "tended to decrease"}, {"measurement": "Serum aspartate aminotransferase (AST) levels compared with the NASH-Vehicle group", "setting": "NASH mice; Bonferroni, P<0.05", "result": "tended to decrease"}, {"measurement": "F4/80-positive signals and cells in liver compared with the NASH-Vehicle group", "setting": "NASH mice; F4/80 immunostaining, macrophage marker", "result": "Lower F4/80-positive signals and positive cells"}, {"measurement": "Alpha-SMA mRNA expression", "setting": "NASH mice; [1]", "result": "1.7 ± 0.4"}, {"measurement": "MCP-1 mRNA expression", "setting": "NASH mice; [1]", "result": "3.2 ± 2.4"}, {"measurement": "TIMP-1 mRNA expression", "setting": "NASH mice; [1]", "result": "7.6 ± 3.3"}, {"measurement": "TNF-α mRNA expression", "setting": "NASH mice; [1]", "result": "4.4 ± 1.9"}, {"measurement": "Liver triglyceride", "setting": "NASH mice; mean ± SD", "result": "22.4 ± 5.4", "unit": "mg/g liver"}, {"measurement": "Serum ALP", "setting": "NASH mice; mean ± SD", "result": "358 ± 129", "unit": "U/L"}, {"measurement": "Serum ALT", "setting": "NASH mice; mean ± SD", "result": "24 ± 4", "unit": "U/L"}, {"measurement": "Serum AST", "setting": "NASH mice; mean ± SD", "result": "76 ± 24", "unit": "U/L"}, {"measurement": "Sirius red-positive area", "setting": "NASH mice; mean ± SD, liver sections", "result": "0.86 ± 0.30", "unit": "%"}, {"measurement": "NAS (NAFLD Activity score)", "setting": "NASH mice; mean ± SD, range 0-8, 10 mg/kg", "result": "4.1 ± 1.0"}, {"measurement": "Lobular inflammation score 0, number of mice", "setting": "NASH mice; score 0 = No Foci", "result": 1}, {"measurement": "Hepatocyte ballooning score 0, number of mice", "setting": "NASH mice; score 0 = None", "result": 2}, {"measurement": "Steatosis score 1, number of mice", "setting": "NASH mice; score 1 = 5-33%", "result": 6}, {"measurement": "Lobular inflammation score 1, number of mice", "setting": "NASH mice; score 1 = <2 foci/200x", "result": 1}, {"measurement": "Hepatocyte ballooning score 1, number of mice", "setting": "NASH mice; score 1 = Few balloon cells", "result": 2}, {"measurement": "Lobular inflammation score 2, number of mice", "setting": "NASH mice; score 2 = 2-4 foci/200x", "result": 6}, {"measurement": "Steatosis score 2, number of mice", "setting": "NASH mice; score 2 = >33-66%", "result": 2}, {"measurement": "Hepatocyte ballooning score 2, number of mice", "setting": "NASH mice; score 2 = Many cells/prominent ballooning", "result": 4}, {"measurement": "Inflammatory cell infiltration in the liver", "setting": "NASH mice; summary of lobular inflammation score and F4/80 immunostaining", "result": "reductions in inflammatory cell infiltration in the liver"}, {"measurement": "Binding to mouse endoglin (ELISA)", "setting": "mouse endoglin", "result": "binds specifically to mouse endoglin"}]}
